Measurements reported in US20110044980A1 (AbbVie / Abbott, published 2011).
Values belong to the binder of their own block, whether it stands above or below them.

How the values were obtained:
[1] = biological target: T1, NKG2D (human, UniProt P26718 1-216); assay: flow cytometry (FACSCalibur), activated NK cells, 10 ug/ml, R-PE GMFI on CD56+ live cells
T1 construct: whole, on cells; also called NKGD
T1 sequence (looked up): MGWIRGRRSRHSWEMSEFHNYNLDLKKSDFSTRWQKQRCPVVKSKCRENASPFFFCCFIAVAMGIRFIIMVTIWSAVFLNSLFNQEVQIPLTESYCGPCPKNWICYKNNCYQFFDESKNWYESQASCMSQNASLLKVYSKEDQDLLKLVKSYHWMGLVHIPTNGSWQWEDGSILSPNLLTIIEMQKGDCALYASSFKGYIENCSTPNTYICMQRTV

[2] = biological target: T1, NKG2D; assay: flow cytometry (FACSCanto), cells carrying the target (line not given), 2 ug/mL

FACS Geometric Mean C-terminal [1]: 31.7
B1: DVD1215 (bispecific antibody)
VH: QVQLQESGPGLVKPSQTLSLTCTVSGYSISSDFAWNWIRQPPGKGLEWMGYISYSGNTRYQPSLKSRITISRDTSKNQFFLKLNSVTAADTATYYCVTAGRGFPYWGQGTLVTVSSASTKGPSVFPLAPQVQLVESGGGLVKPGGSLRLSCAASGFTFSSYGMHWVRQAPGKGLEWVAFIRYDGSNKYYADSVKGRFTISRDNSKNTLYLQMNSLRAEDTAVYYCAKDRGLGDGTYFDYWGQGTTVTVSS
VL: DIQMTQSPSSMSVSVGDRVTITCHSSQDINSNIGWLQQKPGKSFKGLIYHGTNLDDGVPSRFSGSGSGTDYTLTISSLQPEDFATYYCVQYAQFPWTFGGGTKLEIKRTVAAPSVFIFPPQSALTQPASVSGSPGQSITISCSGSSSNIGNNAVNWYQQLPGKAPKLLIYYDDLLPSGVSDRFSGSKSGTSAFLAISGLQSEDEADYYCAAWDDSLNGPVFGGGTKLTVLG
notes: DVD-Ig; dual variable domains only; Outer AB064, inner AB121; also called DVD1215H + DVD1215L

FACS Geometric Mean N-terminal [1]: 33.8
B2: DVD1214 (bispecific antibody)
VH: QVQLVESGGGLVKPGGSLRLSCAASGFTFSSYGMHWVRQAPGKGLEWVAFIRYDGSNKYYADSVKGRFTISRDNSKNTLYLQMNSLRAEDTAVYYCAKDRGLGDGTYFDYWGQGTTVTVSSASTKGPSVFPLAPQVQLQESGPGLVKPSQTLSLTCTVSGYSISSDFAWNWIRQPPGKGLEWMGYISYSGNTRYQPSLKSRITISRDTSKNQFFLKLNSVTAADTATYYCVTAGRGFPYWGQGTLVTVSS
VL: QSALTQPASVSGSPGQSITISCSGSSSNIGNNAVNWYQQLPGKAPKLLIYYDDLLPSGVSDRFSGSKSGTSAFLAISGLQSEDEADYYCAAWDDSLNGPVFGGGTKLTVLGQPKAAPSVTLFPPDIQMTQSPSSMSVSVGDRVTITCHSSQDINSNIGWLQQKPGKSFKGLIYHGTNLDDGVPSRFSGSGSGTDYTLTISSLQPEDFATYYCVQYAQFPWTFGGGTKLEIKR
notes: DVD-Ig; dual variable domains only; Outer AB121, inner AB064; also called DVD1214H + DVD1214L

FACS Geometric Mean C-terminal [1]: 21.2
B6: DVD1055 (bispecific antibody)
VH: QVQLQQSGAELVRPGSSVKISCKASGYAFSSYWMNWVKQRPGQGLEWIGQIWPGDGDTNYNGKFKGKATLTADESSSTAYMQLSSLASEDSAVYFCARRETTTVGRYYYAMDYWGQGTSVTVSSASTKGPSVFPLAPQVQLVESGGGLVKPGGSLRLSCAASGFTFSSYGMHWVRQAPGKGLEWVAFIRYDGSNKYYADSVKGRFTISRDNSKNTLYLQMNSLRAEDTAVYYCAKDRGLGDGTYFDYWGQGTTVTVSS
VL: DILLTQTPASLAVSLGQRATISCKASQSVDYDGDSYLNWYQQIPGQPPKLLIYDASNLVSGIPPRFSGSGSGTDFTLNIHPVEKVDAATYHCQQSTEDPWTFGGGTKLEIKRTVAAPSVFIFPPQSALTQPASVSGSPGQSITISCSGSSSNIGNNAVNWYQQLPGKAPKLLIYYDDLLPSGVSDRFSGSKSGTSAFLAISGLQSEDEADYYCAAWDDSLNGPVFGGGTKLTVLG
notes: DVD-Ig; dual variable domains only; Outer AB006, inner AB121; also called DVD1055H + DVD1055L

More lines, now with the values behind:

B3: DVD1053 (bispecific antibody)
VH: QVQLQQPGAELVKPGASVKMSCKASGYTFTSYNMHWVKQTPGRGLEWIGAIYPGNGDTSYNQKFKGKATLTADKSSSTAYMQLSSLTSEDSAVYYCARSTYYGGDWYFNVWGAGTTVTVSAASTKGPSVFPLAPQVQLVESGGGLVKPGGSLRLSCAASGFTFSSYGMHWVRQAPGKGLEWVAFIRYDGSNKYYADSVKGRFTISRDNSKNTLYLQMNSLRAEDTAVYYCAKDRGLGDGTYFDYWGQGTTVTVSS
VL: QIVLSQSPAILSPSPGEKVTMTCRASSSVSYIHWFQQKPGSSPKPWIYATSNLASGVPVRFSGSGSGTSYSLTISRVEAEDAATYYCQQWTSNPPTFGGGTKLEIKRTVAAPSVFIFPPQSALTQPASVSGSPGQSITISCSGSSSNIGNNAVNWYQQLPGKAPKLLIYYDDLLPSGVSDRFSGSKSGTSAFLAISGLQSEDEADYYCAAWDDSLNGPVFGGGTKLTVLG
notes: DVD-Ig; dual variable domains only; Outer AB001, inner AB121; also called CD-20 / NKG2D DVD-Ig; DVD1053H + DVD1053L
FACS Geometric Mean C-terminal [1]: 31.7

B4: DVD1052 (bispecific antibody)
VH: QVQLVESGGGLVKPGGSLRLSCAASGFTFSSYGMHWVRQAPGKGLEWVAFIRYDGSNKYYADSVKGRFTISRDNSKNTLYLQMNSLRAEDTAVYYCAKDRGLGDGTYFDYWGQGTTVTVSSASTKGPSVFPLAPQVQLQQPGAELVKPGASVKMSCKASGYTFTSYNMHWVKQTPGRGLEWIGAIYPGNGDTSYNQKFKGKATLTADKSSSTAYMQLSSLTSEDSAVYYCARSTYYGGDWYFNVWGAGTTVTVSA
VL: QSALTQPASVSGSPGQSITISCSGSSSNIGNNAVNWYQQLPGKAPKLLIYYDDLLPSGVSDRFSGSKSGTSAFLAISGLQSEDEADYYCAAWDDSLNGPVFGGGTKLTVLGQPKAAPSVTLFPPQIVLSQSPAILSPSPGEKVTMTCRASSSVSYIHWFQQKPGSSPKPWIYATSNLASGVPVRFSGSGSGTSYSLTISRVEAEDAATYYCQQWTSNPPTFGGGTKLEIKR
notes: DVD-Ig; the entries are the dual variable domains (outer VD - linker - inner VD) without constant domains; Outer AB121, inner AB001; also called NKG2D / CD-20 DVD-Ig; DVD1052H + DVD1052L
FACS Geometric Mean N-terminal [1]: 36.4

B5: AB121 (antibody, V domains shown)
VH: QVQLVESGGGLVKPGGSLRLSCAASGFTFSSYGMHWVRQAPGKGLEWVAFIRYDGSNKYYADSVKGRFTISRDNSKNTLYLQMNSLRAEDTAVYYCAKDRGLGDGTYFDYWGQGTTVTVSS
VL: QSALTQPASVSGSPGQSITISCSGSSSNIGNNAVNWYQQLPGKAPKLLIYYDDLLPSGVSDRFSGSKSGTSAFLAISGLQSEDEADYYCAAWDDSLNGPVFGGGTKLTVLG
notes: also called NKGD (KYK-2.0); anti-NKG2D parent antibody
FACS Geometric Mean [2]: 284
FACS Geometric Mean [1]: 31.1

B7: DVD1054 (bispecific antibody)
VH: QVQLVESGGGLVKPGGSLRLSCAASGFTFSSYGMHWVRQAPGKGLEWVAFIRYDGSNKYYADSVKGRFTISRDNSKNTLYLQMNSLRAEDTAVYYCAKDRGLGDGTYFDYWGQGTTVTVSSASTKGPSVFPLAPQVQLQQSGAELVRPGSSVKISCKASGYAFSSYWMNWVKQRPGQGLEWIGQIWPGDGDTNYNGKFKGKATLTADESSSTAYMQLSSLASEDSAVYFCARRETTTVGRYYYAMDYWGQGTSVTVSS
VL: QSALTQPASVSGSPGQSITISCSGSSSNIGNNAVNWYQQLPGKAPKLLIYYDDLLPSGVSDRFSGSKSGTSAFLAISGLQSEDEADYYCAAWDDSLNGPVFGGGTKLTVLGQPKAAPSVTLFPPDILLTQTPASLAVSLGQRATISCKASQSVDYDGDSYLNWYQQIPGQPPKLLIYDASNLVSGIPPRFSGSGSGTDFTLNIHPVEKVDAATYHCQQSTEDPWTFGGGTKLEIKR
notes: DVD-Ig; dual variable domains only; Outer AB121, inner AB006; also called DVD1054H + DVD1054L
FACS Geometric Mean N-terminal [1]: 28.3
